Test results taken from PMC6271940.

T1: angiotensin I-converting enzyme (UniProt P12822)
T1 sequence: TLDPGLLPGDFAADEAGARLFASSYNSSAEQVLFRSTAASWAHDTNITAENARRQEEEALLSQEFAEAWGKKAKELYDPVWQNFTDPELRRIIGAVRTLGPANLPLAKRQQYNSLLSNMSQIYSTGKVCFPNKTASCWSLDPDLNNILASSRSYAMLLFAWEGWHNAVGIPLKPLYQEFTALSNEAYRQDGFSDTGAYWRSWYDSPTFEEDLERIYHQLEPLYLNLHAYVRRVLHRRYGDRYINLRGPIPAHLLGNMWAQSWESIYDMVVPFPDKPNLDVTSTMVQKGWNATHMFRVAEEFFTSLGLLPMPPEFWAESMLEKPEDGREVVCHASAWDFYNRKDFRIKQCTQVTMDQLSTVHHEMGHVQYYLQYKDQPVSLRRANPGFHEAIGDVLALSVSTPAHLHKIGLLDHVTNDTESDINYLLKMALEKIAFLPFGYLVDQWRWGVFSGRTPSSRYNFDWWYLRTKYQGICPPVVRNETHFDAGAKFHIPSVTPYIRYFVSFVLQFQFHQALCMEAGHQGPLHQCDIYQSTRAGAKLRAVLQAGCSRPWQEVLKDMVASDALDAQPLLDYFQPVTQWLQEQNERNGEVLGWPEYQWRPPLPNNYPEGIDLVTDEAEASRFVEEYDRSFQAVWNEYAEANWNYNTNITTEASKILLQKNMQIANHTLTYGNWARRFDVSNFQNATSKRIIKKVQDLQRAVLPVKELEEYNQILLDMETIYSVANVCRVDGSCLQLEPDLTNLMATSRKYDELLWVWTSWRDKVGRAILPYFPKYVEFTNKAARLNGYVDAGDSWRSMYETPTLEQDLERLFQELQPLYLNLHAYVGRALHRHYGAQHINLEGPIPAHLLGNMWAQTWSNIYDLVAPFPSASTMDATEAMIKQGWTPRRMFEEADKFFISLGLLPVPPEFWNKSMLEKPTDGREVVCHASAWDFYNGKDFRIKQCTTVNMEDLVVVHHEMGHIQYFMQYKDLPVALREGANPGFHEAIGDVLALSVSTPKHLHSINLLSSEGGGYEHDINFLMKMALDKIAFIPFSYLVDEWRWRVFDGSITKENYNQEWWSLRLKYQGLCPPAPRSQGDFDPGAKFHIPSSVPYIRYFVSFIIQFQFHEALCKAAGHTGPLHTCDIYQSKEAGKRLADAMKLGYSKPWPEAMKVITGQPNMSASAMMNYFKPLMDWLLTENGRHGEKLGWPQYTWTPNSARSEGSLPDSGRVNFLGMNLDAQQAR


Biological target: T1, angiotensin I-converting enzyme

| ACE inhibitory activity (release of hippuric acid from HHL, HPLC at 228 nm; 50 mM borate, 0.3 M NaCl, pH 8.3, 37 °C, 60 min), IC50 | Molecule |
| --- | --- |
| 1.3 μM | VKP (peptide) |
| 34.5 μM | VKCFR |
